# According to the supplement of paper PMC9170038:
# Test system: MS2 coat protein
# Assay: apparent KD of MS2 coat protein; designed switch direction (-1 OFF switch, 1 ON switch): -1; higher = weaker reporter binding
# Procedure, shortened: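 Apparent KD, taken as the median over clusters for each design, was obtained by curve-fitting normalised cluster fluorescence. Designed RNA switches had been transcribed on Illumina chips by stalled E. coli RNA polymerase and titrated with SNAP-549-labelled MS2 coat protein, doubling from 0.7 or 1.5 nM to 3 µM.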
# [1] = Eterna round: R95, input ligand: microRNA oligo, concentration not stated
# [2] = Eterna round: R95, input ligand: FMN 200 uM
# [3] = Eterna round: R95, input ligand: none
# [4] = input ligand: microRNA oligo, concentration not stated
Sequence,apparent KD of MS2 coat protein (input ligand: FMN 200 uM),apparent KD of MS2 coat protein (input ligand: none),apparent KD of MS2 coat protein [1],apparent KD of MS2 coat protein [2],apparent KD of MS2 coat protein [3],apparent KD of MS2 coat protein [4]
"GGUGGGCUAGGAUAUGCUUUGGGCGGGCAUUCCUUCGAUAAACUUGAGGAUCACCCAAGUAGAAGGAGCUUGCC [salish99_ex2_r4_024] (Eterna round: R97, puzzle: Exclusion 2)",16.2 nM,12.3 nM,–,–,–,–
GGUUAUUGCAAGGAUAUGCUUUUUUUUUAUUUUGCAGAAGGUGCAACAUGAGGAUCACCCAUGUUGGAGGGUUU [JR_E6_Sub023] (puzzle: Exclusion 6),–,–,21.7 nM,–,–,–
GGUUGACAUGAGGAUCACCCAUGUGAGGAUAUGCGAGAGAAAAAAGUGAGGAAGUAAAGCAGAAGGCGCUGUCG [salish99-ex1_r3_004] (puzzle: Exclusion 1),–,–,200 nM,51.6 nM,449 nM,–
GGUUGACAUGAGGAUCACCCAUGUGAGGAUAUGCGAGAGAAAAAAGUGAGGAAGUUUAGCAGAAGGCGCUGUCG [salish99-ex1_r3_006] (puzzle: Exclusion 1),–,–,71 nM,55.6 nM,97.7 nM,–
GGUUGGCGAGGAUAUACAUGAGGAUCACCCAUGUGAGAAGAAAAAGUGAGGAAGAAAAGUAGAAGGCGCUGACG [Mat - Exclusion 3 - Mod of Salish D1] (puzzle: Exclusion 3),–,–,103 nM,74 nM,81.5 nM,–
GGUUGGCGAGGAUAUACAUGAGGAUCACCCAUGUGAGAGAAAAAACUGAGGAAGAAAAGUAGAAGGCGCUGACG [salish99_ex3_r3_026] (puzzle: Exclusion 3),–,–,23.4 nM,117 nM,35.5 nM,–
GGUUGGCGAGGAUAUACAUGAGGAUCACCCAUGUGAGAGAAAAAAGUGCGGAAGAAAAGUAGAAGGCGCUGACG [salish99_ex3_r3_029] (puzzle: Exclusion 3),–,–,25.1 nM,82.7 nM,25.7 nM,–
GGUUGGCGAGGAUAUACAUGAGGAUCACCCAUGUGAGAGAAUAAGUGAGGAAAGAAAAGUAGAAGGCGCUGACG [Mat - Exclusion 3 - Mod of Salish D52] (puzzle: Exclusion 3),–,–,44.5 nM,117 nM,55.1 nM,–
GGUUGGCGAGGAUAUACAUGAGGAUCACCCAUGUGAGGGAAAAAAGUGAGAACGAAAAGUAGAAGGCGCUGACG [salish99_ex3_r3_063] (puzzle: Exclusion 3),–,–,54 nM,10.5 nM,80.5 nM,–
GGUUGGCGAGGAUAUACAUGAGGAUCACCCAUGUGUGAGAAAAAAGUGAGGAAGAAAAGUAGAAGGCGCUGACG [salish99_ex3_r3_007] (puzzle: Exclusion 3),–,–,70.7 nM,30.2 nM,62.1 nM,–
"GGUUGUCGAGGAUAUACUAGGGACCGAUCGAUCGGAACUUCACAUGAGGAUCACCCAUGUAGAAGGCGACAAUC [Eternabot (L1) Solution 57] (Eterna round: R97, puzzle: Exclusion 2)",116 nM,174 nM,–,–,–,–
"GGUUUUUCUGAGGAUAUUGCAUCACCCGAUUUAUAAGAAGGCAGAACAUGAGGAUCACCCAUGUGGGUCUCUAG [Bingo-Bango-27] (Eterna round: R97, puzzle: Exclusion 6)",24.4 nM,15.7 nM,–,–,–,–
"GUAAACGUAUAGGAUAUUUCAGGUCAAAGCUGCAAAGAAGGAUGCACAUGAGGAUCACCCAUGUGGUCAAUAAA [Mod of Quesina 24 - Jieux - Exclusion 6] (Eterna round: R97, puzzle: Exclusion 6)",25.7 nM,22.2 nM,–,–,–,–
GUAAUACAUGAGGAUCACCCAUGUAAGGAUAUGCUAGCGGUCGGCUGACUGACUGCUAGCAGAAGGUACAUGAU [Mat - Mod of JL D77] (puzzle: Exclusion 1),–,–,87.2 nM,–,–,–
"GUAAUUAAUGUAGGAUAUGCAAGGCGAACCUAAGCAGAAGGACAUGUGGAUCACCCAUGUAAUGCGGUCUGCGUACAGAUCGCU [salish99_ex1_NG1_002] (Eterna round: R96, puzzle: Exclusion NG 1)",507 nM,60.2 nM,–,–,–,103 nM
GUAAUUAUAUAGGAUAUCGAUUUUAUUAUUUAACGAGAAGGAUGAACAUGAGGAUCACCCAUGUGGUAUCAUGG [JL-ex6-3.05] (puzzle: Exclusion 6),–,–,138 nM,–,–,–

Sequence,apparent KD of MS2 coat protein (input ligand: FMN 200 uM),apparent KD of MS2 coat protein (input ligand: none),apparent KD of MS2 coat protein [1],apparent KD of MS2 coat protein [2],apparent KD of MS2 coat protein [3],apparent KD of MS2 coat protein [4]
"GUAAUUGAUGUCAGGAUAUCAGGGCCACAAUGCUAUGAGAAGGGACAUGAGGAUCACCCAUGUAAAAGUUCAUG [BmEX4 B.16] (Eterna round: R97, puzzle: Brourd's mod of Exclusion 4)",180 nM,69.8 nM,–,–,–,–
"GUACGUAGAGGAUAUGGUUAUGAUGACAUGAGGAUCACCCAUGUUAGAGUGGGUAGAUUUCCAGAAGGCUGUGAAC [Eternabot (L1) Solution 98] (Eterna round: R97, puzzle: Exclusion 5)",1060 nM,1330 nM,–,–,–,–
"GUACUGACAGGAUAUACAUGAGGAUCACCCAUGUCCUUAAGCUGACAAAAGUCAGCAAGUAGAAGGGUCUGUAC [Omei Ex3 Model Bachelor's Dilema v1] (Eterna round: R97, puzzle: Exclusion 3)",498 nM,79.4 nM,–,–,–,–
"GUACUGAGGCUUUGCUUUAAUCGUACAUGAGGAUCACCCAUGUAGGAUAUGGUAGGCUUUGCUUACCAGAAGGACAGAGUGAUC [JL EXNG3 1.23] (Eterna round: R96, puzzle: Exclusion NG 3)",148 nM,162 nM,–,–,–,121 nM
GUAGAGUAAGGAUAUGCAGAAUAGGAUAGAAUGGUUAGAAUGUAGAAGGUACAUGAGGAUCACCCAUGUAAUGU [Excluse me!!!! 10 - Jieux - Exclusion 4] (puzzle: Exclusion 4),–,–,22.7 nM,20.8 nM,22.7 nM,–
GUAGAGUAAGGAUAUGCUGAAUAGGAUAGAAUGGUUAGAAAGUAGAAGGUACAUGAGGAUCACCCAUGUAAUGU [Excluse me!!!! 24 - Jieux - Exclusion 4] (puzzle: Exclusion 4),–,–,20.3 nM,–,–,–
GUAGAGUAAGGAUAUUGAGAAUAGGAUAGAAUGGUUAGAAUCAAGAAGGUACAUGAGGAUCACCCAUGUAAUGU [Excluse me!!!! 6 - Jieux - Exclusion 4] (puzzle: Exclusion 4),–,–,22.2 nM,16.8 nM,19.7 nM,–
GUAGAGUCAGGAUAUACAGAAGAAGCAUGGAAAACAUGGAUACAUGAGGAUCACCCAUGUAGAAGGGACUCUAC [ChP 11-04-2015 #2] (puzzle: Exclusion 2),–,–,33.2 nM,83.6 nM,41.5 nM,–
"GUAGAGUCAGGAUAUACGAGAUCGAAAGAUCGGUAGUCCUUACAUGAGGAUCACCCAUGUAGAAGGGACUCUAC [Omei mod 7 to Eli's favorate candidate (ch.parushev)] (Eterna round: R97, puzzle: Exclusion 2)",118 nM,15.8 nM,–,–,–,–
"GUAGCUUCGGCUACUACAAGCUUUUUGCUCGUCUUAUUAACAUGAGGAUCACCCAUGUACAAGAGACCUCAUGUAUU [Sensor v3 - turn-off variant 2 - 13] (puzzle: Sensor v3, turn-off variant 2)",–,–,15.6 nM,90.4 nM,146 nM,–
"GUAGCUUCGGCUACUACAAGCUUUUUGCUCGUCUUAUUAACAUGAGGAUCACCCAUGUCAAAGAGACCUCAUGUAUU [Sensor v3 - turn-off variant 2 - 5] (puzzle: Sensor v3, turn-off variant 2)",–,–,28.2 nM,420 nM,462 nM,–
GUAUAUAGUGUGAGGAUAUGCUGGUCCUUGGAUCAGCAGAAGGCACAUGAGGAUCACCCAUGUAGUUAAAUAUG [Mat - Exclusion 4 - JL Mod - D21] (puzzle: Brourd's mod of Exclusion 4),–,–,26.3 nM,–,–,–
GUAUCGUGAGGAUAUCAUGAUUGACUUAGUUUAUGUCAGCGUGAGAAGGCACAUGAGGAUCACCCAUGUGAUUA [Ex4 - 3 - 7] (puzzle: Exclusion 4),–,–,23.1 nM,–,–,–
"GUCACAUGGAUGUAGGAUCACAUGAGGAUCACCCAUGUGACUAACAAGGUUUUUGCUCAUCUUAUGACUAUGUGAAU [A Brourd mod] (Eterna round: R97, puzzle: Sensor, turn-off variant 1)",91.7 nM,103 nM,–,–,–,–
"GUCCCACAUGAGGAUCACCCAUGUGAGGAUAUGGUUUCGCUGGCCGUAGCCAGUGGAACCAGAAGGCGCAUGAU [Mat - Exclusion 1 - JL Mod - D2] (Eterna round: R97, puzzle: Exclusion 1)",25.2 nM,20.3 nM,–,–,–,–
